This test deals with IL-10 receptor (IL-10R) on mouse splenocytes (mouse) (UniProt Q61727). In words: cell-based or functional assay.
Sequence of UniProt Q61727 (Q61727 17-575): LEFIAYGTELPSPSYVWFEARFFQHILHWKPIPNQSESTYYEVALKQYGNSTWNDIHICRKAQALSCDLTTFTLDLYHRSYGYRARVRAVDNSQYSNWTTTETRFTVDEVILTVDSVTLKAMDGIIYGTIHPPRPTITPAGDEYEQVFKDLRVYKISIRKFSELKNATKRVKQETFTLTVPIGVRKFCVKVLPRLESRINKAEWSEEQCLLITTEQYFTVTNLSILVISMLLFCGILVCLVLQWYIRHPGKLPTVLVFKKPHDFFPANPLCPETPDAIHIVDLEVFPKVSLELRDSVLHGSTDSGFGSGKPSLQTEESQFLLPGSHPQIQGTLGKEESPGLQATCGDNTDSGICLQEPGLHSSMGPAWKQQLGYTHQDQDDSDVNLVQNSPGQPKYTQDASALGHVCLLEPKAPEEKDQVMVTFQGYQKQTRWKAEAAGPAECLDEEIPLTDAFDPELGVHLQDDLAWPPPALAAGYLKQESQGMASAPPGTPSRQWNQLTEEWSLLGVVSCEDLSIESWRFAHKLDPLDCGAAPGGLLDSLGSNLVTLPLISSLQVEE

As for “recombinant wildtype mouse IL-10 expressed in human HEK293 cells (from UniProt P18893 19-178) (ligand)”, the STAT3 phosphorylation in mouse splenocytes (Western blot), concentration giving equal signal is 100 ng/mL.

Regarding “stabilized recombinant IL-10 dimer (two wildtype murine IL-10 monomers joined C-terminus to N-terminus by a 7 amino acid peptide linker, one continuous polypeptide) (from UniProt P18893 19-178) (ligand)”, the STAT3 phosphorylation in mouse splenocytes (Western blot), concentration giving equal signal is 10 ng/mL.

For the origin of these results see patent publication US20130316404A1.
